Experiment [1] concerns the target T1, Pdx1 (Bacillus subtilis, UniProt P37527).
T1 construct: gene pdxS; full-length Pdx1 alone, native (untagged) from pETBsPdx1; dodecamer
The experiment in a line: ESI-MS (+[…] Da after NaBH4 reduction), tryptic peptide MALDI-TOF/TOF. The format is biochemical. As to conditions: covalent Schiff base at K149 (P2 site); PLP made de novo from R5P, DL-G3P and ammonium sulfate.

For experiment [2], the target named is T2, Pdx1 R288A (Bacillus subtilis), native (untagged) (Bacillus subtilis, UniProt P37527 1-294, R288A).
T2 construct: Pdx1, synthase subunit of PLP synthase, Bacillus subtilis; also called Pdx1 R288A mutein; source: site directed mutagenesis of Pdx1; expressed and purified as described by Raschle et al. (2005); copies: 12
T2 sequence: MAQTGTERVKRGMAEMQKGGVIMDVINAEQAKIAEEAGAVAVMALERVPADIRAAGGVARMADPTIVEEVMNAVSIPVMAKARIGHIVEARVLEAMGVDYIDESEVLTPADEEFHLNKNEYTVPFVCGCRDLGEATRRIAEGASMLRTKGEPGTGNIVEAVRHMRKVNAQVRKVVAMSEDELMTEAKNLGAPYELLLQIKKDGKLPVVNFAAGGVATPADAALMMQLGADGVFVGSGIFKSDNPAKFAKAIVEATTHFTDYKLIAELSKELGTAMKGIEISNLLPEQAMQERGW
The experiment in a line: other fluorescence titration; intrinsic protein fluorescence of Pdx1 titrated with increasing concentrations of Pdx2 H170N in the presence of glutamine, without R5P; decrease in fluorescence intensity; done as described in ref. 21. The note with it: both partners purified.

The target in experiment [3] is T3, Pdx1 R288K (Bacillus subtilis), native (untagged) (Bacillus subtilis, UniProt P37527 1-294, R288K).
T3 construct: Pdx1, synthase subunit of PLP synthase, Bacillus subtilis; also called Pdx1 R288K mutein; source: site directed mutagenesis of Pdx1; expressed and purified as described by Raschle et al. (2005)
T3 sequence: T2 sequence with A288K
Described as above. As to conditions: both partners purified.

Experiment [4] deals with T4, Pdx1 wild type (Bacillus subtilis), native (untagged) (Bacillus subtilis, UniProt P37527 1-294).
T4 construct: Pdx1, synthase subunit of PLP synthase, Bacillus subtilis; construct pETBsPdx1 of Raschle et al. (2005); Native means untagged; Dodecamer by SEC-MALS; also called BsPdx1 wild type; PLP synthase synthase subunit; source: construct pETBsPdx1; expressed and purified as described by Raschle et al. (2005); copies: 12
T4 sequence: T2 sequence with A288R
Described as above. The note with it: both partners purified.

Where a chain is given by its changes, count along the chain named. In names and notes the source's numbering stands.

T1 sequence (P37527 2-294): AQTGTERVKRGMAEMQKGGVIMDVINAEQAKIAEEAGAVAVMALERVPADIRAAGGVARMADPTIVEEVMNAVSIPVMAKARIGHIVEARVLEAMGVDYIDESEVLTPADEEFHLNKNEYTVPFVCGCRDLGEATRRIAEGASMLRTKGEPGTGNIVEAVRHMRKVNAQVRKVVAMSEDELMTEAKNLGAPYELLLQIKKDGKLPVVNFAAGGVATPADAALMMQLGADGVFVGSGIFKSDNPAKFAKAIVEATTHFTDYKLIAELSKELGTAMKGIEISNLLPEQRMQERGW

Consider `Cc1ncc(COP(=O)(O)O)c(C=O)c1O` [pyridoxal 5′-phosphate], for which, in experiment [1], the “ESI-MS (+231 Da after NaBH4 reduction), tryptic peptide MALDI-TOF/TOF” value is “demonstrate that PLP is covalently bound to Pdx1”.

B1: Pdx2 H170N (Bacillus subtilis), catalytically inert mutein (enzyme, UniProt P37528 1-196, looked up)
chain: MLTIGVLGLQGAVREHIHAIEACGAAGLVVKRPEQLNEVDGLILPGGESTTMRRLIDTYQFMEPLREFAAQGKPMFGTCAGLIILAKEIAGSDNPHLGLLNVVVERNSFGRQVDSFEADLTIKGLDEPFTGVFIRAPHILEAGENVEVLSEHNGRIVAAKQGQFLGCSFNPELTEDHRVTQLFVEMVEEYKQKALV
notes: Pdx2, glutaminase subunit of PLP synthase, Bacillus subtilis; It was used together with glutamine (Michaelis complex of Pdx2 H170N and glutamine); also called Pdx2-His6 H170N; Pdx2 H170N mutein; source: construct Pdx2-His6 H170N of Strohmeier et al. (2006); expressed and purified as described by Raschle et al. (2005)
As to B1, the binding result in experiment [2], in experiment [3] and in experiment [4] was “binds” throughout.
